Test [1] concerns the target Sst2^catD354A (Asp354Ala mutant of the catalytic domain of Sst2) (S. pombe) (UniProt Q9P371). Put plainly: ITC.
The target in test [2] is catalytic domain of Sst2 (residues 245–435), Sst2^cat (S. pombe) (UniProt Q9P371). Nature of the test: ITC. Background: In ITC the heat of successive injections is recorded.

These results are taken from PMC4033627.

Sequence of Sst2^catD354A (Asp354Ala mutant of the catalytic domain of Sst2) (S. pombe) (Q9P371 245-435 D354A): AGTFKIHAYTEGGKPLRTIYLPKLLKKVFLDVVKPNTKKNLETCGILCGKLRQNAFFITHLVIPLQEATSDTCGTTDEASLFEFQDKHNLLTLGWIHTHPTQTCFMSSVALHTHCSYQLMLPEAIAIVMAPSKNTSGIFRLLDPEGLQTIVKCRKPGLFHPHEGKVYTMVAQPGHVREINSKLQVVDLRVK
Sequence of catalytic domain of Sst2 (residues 245–435), Sst2^cat (S. pombe) (Q9P371 245-435): as the sequence (Q9P371 245-435 D354A) above, with A110D counted along it

In test [1], “Lys63-linked diubiquitin, enzymatically synthesized from Lys63Arg and Asp77 ubiquitin mutants” returned a Kd of 1100 nM and a dH of 11.8 kcal/mol.

In test [2], “ubiquitin (from a pRSETA plasmid, for isothermal titration calorimetry) (from UniProt P0CG48 1-76) (natural protein)” gave a dH of 11.9 kcal/mol.

By Kd is commonly meant the concentration at which binding is half-saturated. The low end stands for higher affinity, the high end for lower affinity.
